This note sets out measurements from patent US20140038292.

This data set relates to T1, Tol1 transposase (851 aa) (Oryzias latipes).
T1 sequence: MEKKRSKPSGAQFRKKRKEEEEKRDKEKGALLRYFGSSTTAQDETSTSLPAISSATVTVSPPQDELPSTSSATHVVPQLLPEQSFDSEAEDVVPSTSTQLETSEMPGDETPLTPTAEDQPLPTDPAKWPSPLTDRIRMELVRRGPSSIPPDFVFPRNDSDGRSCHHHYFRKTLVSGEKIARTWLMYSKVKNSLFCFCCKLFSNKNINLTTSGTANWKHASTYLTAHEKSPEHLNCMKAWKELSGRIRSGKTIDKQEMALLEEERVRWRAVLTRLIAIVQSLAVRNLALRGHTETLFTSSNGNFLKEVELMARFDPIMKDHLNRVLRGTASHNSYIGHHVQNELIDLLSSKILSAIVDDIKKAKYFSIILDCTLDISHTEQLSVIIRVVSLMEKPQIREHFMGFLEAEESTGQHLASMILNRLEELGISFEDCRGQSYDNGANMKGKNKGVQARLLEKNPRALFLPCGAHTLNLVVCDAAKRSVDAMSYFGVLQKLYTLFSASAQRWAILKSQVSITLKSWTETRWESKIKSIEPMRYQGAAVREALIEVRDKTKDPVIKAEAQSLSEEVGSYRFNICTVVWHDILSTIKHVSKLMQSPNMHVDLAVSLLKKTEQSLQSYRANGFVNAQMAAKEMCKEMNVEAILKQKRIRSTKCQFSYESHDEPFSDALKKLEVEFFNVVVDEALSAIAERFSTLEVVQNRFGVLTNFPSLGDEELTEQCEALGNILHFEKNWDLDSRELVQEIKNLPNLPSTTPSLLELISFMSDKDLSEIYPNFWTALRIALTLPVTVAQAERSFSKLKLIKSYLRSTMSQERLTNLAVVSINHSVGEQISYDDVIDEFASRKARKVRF
The experiment in a line: cell_activity. The conditions noted are these: HeLa, donor 200 ng, helper 800 ng; 8 bp TSD at insertions.

In turn, “Tol1-tyr element (1855 bp), donor plasmid” displayed an activity (net G418-resistant colonies) of 3660.
